Experimental findings from paper PMC3623455 are described below.

Substrate in series [1]: OC[C@@H](O)[C@H](O)[C@@H](O)CO
In words: purified protein. To be noted: 100 mM Tris-HCl pH 8.0, 1 mM NADP+, polyol oxidation.

Substrate in series [2]: O=C(CO)[C@H](O)[C@@H](O)CO
Kind of series: purified protein. As to conditions: 50 mM Tris-HCl pH 7.0, 0.5 mM NADPH, sugar reduction.

As a reminder, the kcat is the number of substrate molecules converted per active site and unit of time at saturation.

B1: LXR3 (Trichoderma reesei QM6a) (protein)
chain: KNGAFPHDNAAVPNVERVLPLFSLKGRTAIVSGAGAGIGLAVAQAFAEAGANVAIWYNSNKQAVTSAEDIAKTYGVKCKAYQVNVTSAEAVDKAITEIIKEFNGRLDVFVANSGITWTEGAFIDGSVESARNVMSVNVDGVMWCAKSAGAHFRRQKEEGTTIDGKPLDNFIAGSFIATASMSGSIVNVPQLQAVYNSSKAAVIHFCKSLAVEWTGFARVNTVSPGYIITEISNFVPPETKTLWKDKIVMGREGRVGELKGAYLYLASDASSYTTGLDMIVDGGYSLP
On to B1, for which the catalytic constant (kcat) was 1 s⁻¹ in the series “purified protein [1]” and 11.4 s⁻¹ in the series “purified protein [2]”.
